Test [1] has as its target minimal RGA5HMA construct (RGA5 991-1072) (rice) (UniProt F7J0N2). As to the kind of experiment: ITC.
The target in test [2] is RGA5_S (RGA5 982-1116), small C-terminal fragment of RGA5 carrying the HMA domain (rice) (UniProt F7J0N2). In words: crystal structure.
For test [3] the target is unchanged. In words: ITC.

In test [1], “dSP-AVR1-CO39 (AVR1-CO39 with its signal peptide deleted), wild type, recombinant (natural protein)” yielded a Kd of 7.2 µM. Also, the stoichiometry N in test [2] is 1.
With “dSP-AVR-Pia (AVR-Pia with its signal peptide deleted), recombinant (natural protein)”, in test [3], the Kd worked out at 1.8 µM.

Source of the values: PMC6233088.
